Test results published in article PMC8480667 (The Journal of Experimental Medicine, 2021).

Assays:
[1] = biological target: rat α1β3 GABAA receptor on HEK293T cells (Rattus norvegicus, UniProt P62813;P63079); assay: immunostaining of cells or tissue
[2] = biological target: rodent α3β3γ2 GABAA receptor on COS7 cells (Rattus norvegicus (α3 rat; β3, γ2 …, UniProt P20236;P63079;P18508); assay: immunostaining of cells or tissue
[3] = biological target: rodent GABAA receptor γ2 subunit alone on COS7 cells (Rattus norvegicus (paper: rodent), UniProt P18508); assay: immunostaining of cells or tissue
[4] = biological target: rodent α1β3γ2 GABAA receptor on COS7 cells (Rattus norvegicus (alpha1, beta3); …, UniProt P62813;P63079;P18508); assay: immunostaining of cells or tissue
[5] = biological target: rodent α5β3γ2 GABAA receptor on COS7 cells (Rattus norvegicus (paper: rodent), UniProt P19969;P63079;P18508); assay: immunostaining of cells or tissue
[6] = biological target: rodent α1β3 GABAA receptor on COS7 cells (Rattus norvegicus, UniProt P62813;P63079); assay: immunostaining of cells or tissue
[7] = biological target: rodent α2β3γ2 GABAA receptor on COS7 cells (Rattus norvegicus (paper: rodent), UniProt P23576;P63079;P18508); assay: immunostaining of cells or tissue
[8] = biological target: rodent α4β3γ2 GABAA receptor on COS7 cells (Rattus norvegicus (α4 rat; β3, γ2 …, UniProt P28471;P63079;P18508); assay: immunostaining of cells or tissue
[9] = biological target: rodent GABAA receptor β3 subunit alone on COS7 cells (Rattus norvegicus, UniProt P63079); assay: immunostaining of cells or tissue
[10] = biological target: human α1β3γ2 GABAA receptor on HEK293T cells (Homo sapiens, UniProt P14867;P28472;P18507); assay: flow cytometry on cells
[11] = biological target: rat α1β3γ2 GABAA receptor on HEK293T cells (Rattus norvegicus, UniProt P62813;P63079;P18508); assay: flow cytometry on cells

rodent α3β3γ2 GABAA receptor on COS7 cells (Rattus norvegicus, sequence (P20236 29-493, chain 1 of 3): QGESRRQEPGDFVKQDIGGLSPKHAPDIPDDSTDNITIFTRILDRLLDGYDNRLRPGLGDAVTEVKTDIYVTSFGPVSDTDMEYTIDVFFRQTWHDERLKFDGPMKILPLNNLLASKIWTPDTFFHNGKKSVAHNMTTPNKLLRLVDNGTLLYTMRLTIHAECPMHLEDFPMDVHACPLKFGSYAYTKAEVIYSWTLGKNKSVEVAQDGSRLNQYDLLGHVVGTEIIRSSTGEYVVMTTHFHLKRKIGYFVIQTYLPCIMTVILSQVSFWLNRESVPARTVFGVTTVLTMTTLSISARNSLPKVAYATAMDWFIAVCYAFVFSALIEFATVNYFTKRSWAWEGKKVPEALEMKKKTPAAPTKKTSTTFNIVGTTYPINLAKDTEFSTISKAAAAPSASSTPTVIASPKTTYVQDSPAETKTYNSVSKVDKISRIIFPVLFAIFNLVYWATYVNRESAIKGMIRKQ
rodent α3β3γ2 GABAA receptor on COS7 cells (Rattus norvegicus, sequence (P63079 26-473, chain 2 of 3): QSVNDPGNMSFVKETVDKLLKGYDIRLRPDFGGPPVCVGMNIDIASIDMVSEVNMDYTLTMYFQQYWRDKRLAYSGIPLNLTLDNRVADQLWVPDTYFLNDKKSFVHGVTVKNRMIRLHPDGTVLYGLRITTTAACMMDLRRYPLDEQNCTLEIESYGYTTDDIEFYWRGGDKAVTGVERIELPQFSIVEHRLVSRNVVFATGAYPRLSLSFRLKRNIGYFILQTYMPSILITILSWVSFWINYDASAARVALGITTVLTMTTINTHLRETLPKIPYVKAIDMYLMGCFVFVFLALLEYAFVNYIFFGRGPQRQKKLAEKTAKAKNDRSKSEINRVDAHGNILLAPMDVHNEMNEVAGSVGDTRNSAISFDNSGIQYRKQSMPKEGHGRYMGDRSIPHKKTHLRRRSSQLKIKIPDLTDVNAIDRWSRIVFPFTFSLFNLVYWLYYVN
rodent α3β3γ2 GABAA receptor on COS7 cells (Rattus norvegicus, sequence (P18508 39-466, chain 3 of 3): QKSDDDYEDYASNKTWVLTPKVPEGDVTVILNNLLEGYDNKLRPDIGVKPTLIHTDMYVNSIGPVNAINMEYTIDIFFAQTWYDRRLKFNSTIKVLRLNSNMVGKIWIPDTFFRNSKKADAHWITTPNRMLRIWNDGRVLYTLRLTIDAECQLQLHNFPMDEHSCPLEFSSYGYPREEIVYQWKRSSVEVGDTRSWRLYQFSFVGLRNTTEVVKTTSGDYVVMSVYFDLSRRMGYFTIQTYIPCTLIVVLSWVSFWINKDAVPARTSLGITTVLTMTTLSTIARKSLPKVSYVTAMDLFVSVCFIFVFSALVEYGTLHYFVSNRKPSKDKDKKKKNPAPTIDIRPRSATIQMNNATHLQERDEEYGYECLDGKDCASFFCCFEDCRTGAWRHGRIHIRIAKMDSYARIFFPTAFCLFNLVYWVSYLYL
rodent α5β3γ2 GABAA receptor on COS7 cells, sequence (P19969 26-464, chain 1 of 3): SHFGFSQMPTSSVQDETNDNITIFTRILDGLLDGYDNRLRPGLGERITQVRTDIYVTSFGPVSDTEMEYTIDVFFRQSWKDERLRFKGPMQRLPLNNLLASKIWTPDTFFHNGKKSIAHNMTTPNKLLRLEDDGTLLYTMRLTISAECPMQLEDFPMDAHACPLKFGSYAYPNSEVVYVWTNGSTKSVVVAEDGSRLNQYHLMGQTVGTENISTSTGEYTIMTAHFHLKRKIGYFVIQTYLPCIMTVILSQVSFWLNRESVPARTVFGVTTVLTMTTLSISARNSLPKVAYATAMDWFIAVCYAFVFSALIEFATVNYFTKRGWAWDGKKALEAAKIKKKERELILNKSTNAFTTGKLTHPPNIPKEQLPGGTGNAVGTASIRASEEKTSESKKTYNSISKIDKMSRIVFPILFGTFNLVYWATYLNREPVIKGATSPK
rodent α5β3γ2 GABAA receptor on COS7 cells, sequence (P63079 26-473, chain 2 of 3): as the sequence (P63079 26-473, chain 2 of 3) above
rodent α5β3γ2 GABAA receptor on COS7 cells, sequence (P18508 39-466, chain 3 of 3): as the sequence (P18508 39-466, chain 3 of 3) above
rodent α2β3γ2 GABAA receptor on COS7 cells, sequence (P23576 29-451, chain 1 of 3): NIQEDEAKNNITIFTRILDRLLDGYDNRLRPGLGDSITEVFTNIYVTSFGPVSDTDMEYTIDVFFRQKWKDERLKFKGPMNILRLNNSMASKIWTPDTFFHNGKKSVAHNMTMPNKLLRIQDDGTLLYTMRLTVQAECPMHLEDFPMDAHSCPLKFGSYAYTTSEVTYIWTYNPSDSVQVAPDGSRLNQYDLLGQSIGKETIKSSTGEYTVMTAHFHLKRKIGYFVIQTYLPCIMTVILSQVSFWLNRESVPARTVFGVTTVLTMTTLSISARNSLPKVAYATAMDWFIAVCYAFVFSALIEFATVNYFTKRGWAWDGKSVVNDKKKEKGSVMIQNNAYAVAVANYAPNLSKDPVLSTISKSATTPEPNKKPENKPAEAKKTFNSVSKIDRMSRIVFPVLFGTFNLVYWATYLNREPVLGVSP
rodent α2β3γ2 GABAA receptor on COS7 cells, sequence (P63079 26-473, chain 2 of 3): as the sequence (P63079 26-473, chain 2 of 3) above
rodent α2β3γ2 GABAA receptor on COS7 cells, sequence (P18508 39-466, chain 3 of 3): as the sequence (P18508 39-466, chain 3 of 3) above
rat α1β3 GABAA receptor on HEK293T cells, sequence (P62813 28-455, chain 1 of 2): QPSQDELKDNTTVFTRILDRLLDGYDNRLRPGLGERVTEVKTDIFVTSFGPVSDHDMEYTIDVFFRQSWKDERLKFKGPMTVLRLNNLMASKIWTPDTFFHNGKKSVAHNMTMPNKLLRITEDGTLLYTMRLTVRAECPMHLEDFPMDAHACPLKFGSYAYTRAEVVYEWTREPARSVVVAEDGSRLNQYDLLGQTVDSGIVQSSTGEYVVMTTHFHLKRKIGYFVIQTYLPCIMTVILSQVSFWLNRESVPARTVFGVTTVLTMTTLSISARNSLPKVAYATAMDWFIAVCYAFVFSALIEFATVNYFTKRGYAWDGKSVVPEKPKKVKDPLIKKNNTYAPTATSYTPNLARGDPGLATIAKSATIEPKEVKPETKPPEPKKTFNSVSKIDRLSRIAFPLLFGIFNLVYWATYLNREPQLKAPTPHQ
rat α1β3 GABAA receptor on HEK293T cells, sequence (P63079 26-473, chain 2 of 2): as the sequence (P63079 26-473, chain 2 of 3) above

binding result [1] | binding result [2] | binding result [3] | binding result [4] | binding result [5] | binding result [6] | binding result [7] | binding result [8] | binding result [9] | binding result [10] | binding result [11] | Binder
no binding | no binding (tested: 5 µg/ml) | no binding (tested: 5 µg/ml) | binds | no binding (tested: 5 µg/ml) | no binding (tested: 5 µg/ml) | no binding (tested: 5 µg/ml) | no binding (tested: 5 µg/ml) | no binding (tested: 5 µg/ml) | binds | binds | human monoclonal GABAAR antibody #113-175 (antibody, V domains shown) VH: EVQLLESGEGLVQPGGSLRLSCAASGFTFKTYAMSWVRQAPGKGLEWVSAISGSGASTYYADFVEGRFTISRDNSKNTLYLQMNSLRAEDTAVYYCAKEPPAMVWFGGGYFDYWGQGTLVTVSS VL: EIVLTQSPATLSLSPGERATLSCRASQSVSSYLAWYQQKPGQAPRLLIYDASNRATGIPARFSGSGSGTDFTLTISSLEPEDFAVYYCQQRSNWPPYSFGQGTKLEIK
binds | no binding (tested: 5 µg/ml) | no binding (tested: 5 µg/ml) | binds | no binding (tested: 5 µg/ml) | binds | no binding (tested: 5 µg/ml) | no binding (tested: 5 µg/ml) | no binding (tested: 5 µg/ml) | binds | binds | human monoclonal GABAAR antibody #113-115 (antibody, V domains shown) VH: QVQLVQSGAEVKKPGASVKVSCKASGYTFISYDINWVRQATGQGLEWMGGMDPKSGNTGYAQKFQGRVTMTTNTAISTAYMELSSLRSEDTAVYYCVRGEQSYDRTGYSDWFDPWGQGTLVTVSS VL: not shown
